Measured values published in patent US20150010589A1 (published 2015).

B1: recombinant Aegyptin (mature protein with C-terminal 6xHis tag, expressed in 293-F cells) (other)
chain: RPMPEDEEPVAEGGDDDASGESEGEEETTDDAGGDGGEEENEGEEHAGDKDAGGEDTGKEENTGHDDAGEEDAGEEDAGEEDAGEEDAGEEDAEKEEGEKEDAGDDAGSDDGEEDSTGGDEGEDNAEDSKGSEKNDPADTYRQVVALLDKDTKVDHIQSEYLRSALNNDLQSEVRVPVVEAIGRIGDYSKIQGCFKSMGKDVKKVISEEEKKFKSCMSKKKSEYQCSEDSFAAAKSKLSPITSKIKSCVSSKGRHHHHHH

Tests used:
[1] = molecular target: T1, soluble collagen type I (pepsin-digested, non-fibrillar, triple helical; BD Biosciences) (human, UniProt P02452 179-1192; P08123 91-1104); test: SPR kinetics at 15-40 C on immobilized collagen type I, van't Hoff analysis; value (±SE)
T1 construct: domain: pepsin-digested, soluble non-fibrillar (tertiary structure, triple helical); also called collagen I; Coll-I

[2] = molecular target: T2, soluble collagen type III (pepsin-digested, non-fibrillar; BD Biosciences) (human, UniProt P02461 168-1196); test: SPR (Biacore T100), Aegyptin over immobilized collagen type III, 25 C, two-state reaction model; Ka1
T2 construct: domain: pepsin-digested, soluble non-fibrillar (tertiary structure, triple helical); also called collagen III
T2 sequence: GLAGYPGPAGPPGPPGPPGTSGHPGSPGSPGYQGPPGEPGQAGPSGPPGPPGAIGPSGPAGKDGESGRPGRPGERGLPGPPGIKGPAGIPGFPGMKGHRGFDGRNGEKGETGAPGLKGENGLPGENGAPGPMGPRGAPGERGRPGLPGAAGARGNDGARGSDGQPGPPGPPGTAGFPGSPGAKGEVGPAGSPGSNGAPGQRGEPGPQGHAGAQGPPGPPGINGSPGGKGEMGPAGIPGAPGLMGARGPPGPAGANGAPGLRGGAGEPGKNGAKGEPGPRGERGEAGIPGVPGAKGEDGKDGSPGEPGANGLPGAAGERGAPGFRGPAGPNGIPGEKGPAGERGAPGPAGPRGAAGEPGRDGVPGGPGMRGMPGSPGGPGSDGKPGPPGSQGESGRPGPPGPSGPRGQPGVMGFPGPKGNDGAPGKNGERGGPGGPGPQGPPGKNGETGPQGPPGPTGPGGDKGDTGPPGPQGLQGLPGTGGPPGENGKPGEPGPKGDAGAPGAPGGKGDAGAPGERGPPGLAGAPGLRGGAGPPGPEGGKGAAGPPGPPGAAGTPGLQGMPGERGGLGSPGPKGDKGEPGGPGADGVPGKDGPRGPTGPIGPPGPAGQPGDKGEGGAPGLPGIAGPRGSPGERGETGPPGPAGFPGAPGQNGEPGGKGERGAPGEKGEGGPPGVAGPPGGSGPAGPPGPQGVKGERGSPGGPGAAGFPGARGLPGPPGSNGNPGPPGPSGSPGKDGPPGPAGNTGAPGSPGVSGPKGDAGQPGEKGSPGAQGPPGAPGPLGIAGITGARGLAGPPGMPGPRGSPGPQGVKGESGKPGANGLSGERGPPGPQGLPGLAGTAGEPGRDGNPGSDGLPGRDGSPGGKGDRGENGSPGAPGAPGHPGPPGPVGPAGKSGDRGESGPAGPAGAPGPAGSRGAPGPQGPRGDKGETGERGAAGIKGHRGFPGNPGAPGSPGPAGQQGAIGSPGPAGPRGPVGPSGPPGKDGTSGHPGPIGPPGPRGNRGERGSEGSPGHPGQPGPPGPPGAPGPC

[3] = molecular target: T3, heat-denatured soluble collagen type I (90 min at 98° C.) (human, UniProt P02452 179-1192; P08123 91-1104); test: SPR, Aegyptin over immobilized heat-denatured collagen I, two-state model; Ka1
T3 construct: domain: pepsin-digested, soluble non-fibrillar collagen, heat-denatured; Same material as soluble collagen I, denatured in a thermocycler before immobilization; also called Collagen denatured; heat-denatured collagen

[4] = molecular target: T1, soluble collagen type I …; test: SPR (Biacore T100), Aegyptin over immobilized collagen type I, 25 C, two-state reaction model; Ka1
[5] = molecular target: T1, soluble collagen type I …; test: SPR, Aegyptin over immobilized soluble collagen type I, two-state model; Kd1
[6] = molecular target: T2, soluble collagen type III …; test: SPR (Biacore T100), Aegyptin over immobilized collagen type III, 25 C, two-state reaction model
[7] = molecular target: T3, heat-denatured soluble collagen type I …; test: SPR, Aegyptin over immobilized heat-denatured collagen I, two-state model; Kd1
[8] = molecular target: T1, soluble collagen type I …; test: SPR (Biacore T100), Aegyptin over immobilized collagen type I, 25 C, two-state reaction model; Kd1
[9] = molecular target: T1, soluble collagen type I …; test: SPR, Aegyptin over immobilized soluble collagen type I, two-state model
[10] = molecular target: T1, soluble collagen type I …; test: SPR, Aegyptin over immobilized soluble collagen type I, 180 s at 30 µl/min, two-state model; Ka1
[11] = molecular target: T4, RGQOGVMGFO peptide GPC-(GPP)5-GPOGPSGPRGQOGVMGFOGPKGNDGAO-(GPP)5-GPC-NH2, cross-linked (O residues as printed (hydroxyproline); C-terminal amide (NH2); cross-linked (4° C. for 48 hours in PBS, or SPDP)); test: ELISA, inhibition of vWf (3 nM) binding to the coated RGQOGVMGFO peptide by Aegyptin (0.05-3 µM)
T4 construct: also called collagen type III vWf-related peptide

[12] = molecular target: T2, soluble collagen type III …; test: SPR (Biacore T100), Aegyptin over immobilized collagen type III, 25 C, two-state reaction model; Kd1
[13] = molecular target: T1, soluble collagen type I …; test: SPR (Biacore T100), Aegyptin over immobilized collagen type I, 25 C, two-state reaction model
[14] = molecular target: T3, heat-denatured soluble collagen type I …; test: SPR, Aegyptin over immobilized heat-denatured collagen I, two-state model
[15] = molecular target: B1; test: SPR, Aegyptin injected over immobilized GPVI
[16] = molecular target: T1, soluble collagen type I …; test: SPR, C-terminus-2 (5-250 nM) over immobilized soluble collagen type I, two-state binding model

T3 sequence (P02452 179-1192 limits assumed, chain 1 of 2): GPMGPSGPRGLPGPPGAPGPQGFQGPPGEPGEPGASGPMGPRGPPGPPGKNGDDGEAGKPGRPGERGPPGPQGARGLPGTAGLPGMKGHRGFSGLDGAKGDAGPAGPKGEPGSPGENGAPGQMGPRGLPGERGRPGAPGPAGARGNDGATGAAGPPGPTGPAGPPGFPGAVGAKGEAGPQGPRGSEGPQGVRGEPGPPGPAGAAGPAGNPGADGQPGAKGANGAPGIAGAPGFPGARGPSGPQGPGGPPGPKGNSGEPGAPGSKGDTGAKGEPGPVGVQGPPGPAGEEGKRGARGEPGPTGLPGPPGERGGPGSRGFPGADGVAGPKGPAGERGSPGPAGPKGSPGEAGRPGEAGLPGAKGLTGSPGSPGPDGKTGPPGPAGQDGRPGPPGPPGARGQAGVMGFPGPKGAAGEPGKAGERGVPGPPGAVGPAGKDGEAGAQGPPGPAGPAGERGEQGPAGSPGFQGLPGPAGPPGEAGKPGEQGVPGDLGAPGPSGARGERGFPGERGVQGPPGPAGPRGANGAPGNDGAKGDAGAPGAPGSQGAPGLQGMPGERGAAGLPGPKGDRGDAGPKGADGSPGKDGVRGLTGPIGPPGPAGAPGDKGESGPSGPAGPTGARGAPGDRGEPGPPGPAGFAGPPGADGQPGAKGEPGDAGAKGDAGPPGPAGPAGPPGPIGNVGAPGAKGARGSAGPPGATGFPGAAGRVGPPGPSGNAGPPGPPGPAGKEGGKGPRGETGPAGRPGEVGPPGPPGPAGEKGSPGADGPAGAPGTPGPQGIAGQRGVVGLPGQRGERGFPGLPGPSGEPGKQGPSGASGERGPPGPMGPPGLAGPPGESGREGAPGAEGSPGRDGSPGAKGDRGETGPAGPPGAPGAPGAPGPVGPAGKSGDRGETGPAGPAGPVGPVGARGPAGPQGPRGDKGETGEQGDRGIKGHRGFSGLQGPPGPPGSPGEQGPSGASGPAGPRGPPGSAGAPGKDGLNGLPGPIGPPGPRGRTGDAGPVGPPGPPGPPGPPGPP
T3 sequence (P08123 91-1104 limits assumed, chain 2 of 2): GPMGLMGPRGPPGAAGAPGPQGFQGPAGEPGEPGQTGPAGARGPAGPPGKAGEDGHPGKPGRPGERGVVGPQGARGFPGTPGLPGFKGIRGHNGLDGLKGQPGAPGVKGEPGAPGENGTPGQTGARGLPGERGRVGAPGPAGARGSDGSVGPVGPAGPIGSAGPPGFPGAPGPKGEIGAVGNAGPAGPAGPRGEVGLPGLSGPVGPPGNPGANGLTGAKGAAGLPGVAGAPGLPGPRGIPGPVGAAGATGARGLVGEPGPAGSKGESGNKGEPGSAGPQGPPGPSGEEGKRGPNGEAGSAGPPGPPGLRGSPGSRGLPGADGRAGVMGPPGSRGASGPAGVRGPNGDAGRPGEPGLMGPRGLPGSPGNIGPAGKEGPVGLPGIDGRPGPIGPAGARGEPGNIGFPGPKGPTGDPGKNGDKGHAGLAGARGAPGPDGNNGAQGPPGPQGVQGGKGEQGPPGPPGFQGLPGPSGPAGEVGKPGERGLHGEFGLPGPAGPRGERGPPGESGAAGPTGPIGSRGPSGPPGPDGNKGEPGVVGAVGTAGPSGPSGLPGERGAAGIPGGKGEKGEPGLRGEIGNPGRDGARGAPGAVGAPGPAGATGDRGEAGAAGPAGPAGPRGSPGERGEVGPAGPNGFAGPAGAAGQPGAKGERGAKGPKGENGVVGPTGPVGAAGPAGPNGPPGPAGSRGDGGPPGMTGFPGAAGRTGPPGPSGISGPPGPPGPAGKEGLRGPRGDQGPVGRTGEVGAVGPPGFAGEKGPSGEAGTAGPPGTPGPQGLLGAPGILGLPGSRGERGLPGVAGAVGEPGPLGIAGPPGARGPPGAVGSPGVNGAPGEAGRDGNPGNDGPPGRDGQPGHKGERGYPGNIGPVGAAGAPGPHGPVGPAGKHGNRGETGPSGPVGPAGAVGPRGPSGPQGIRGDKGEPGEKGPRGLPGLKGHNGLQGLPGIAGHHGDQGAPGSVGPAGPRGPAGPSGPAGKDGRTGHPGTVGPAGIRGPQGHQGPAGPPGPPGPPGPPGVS
T1 sequence (P02452 179-1192 limits assumed, chain 1 of 2): as the sequence (P02452 179-1192 limits assumed, chain 1 of 2) above
T1 sequence (P08123 91-1104 limits assumed, chain 2 of 2): as the sequence (P08123 91-1104 limits assumed, chain 2 of 2) above

B1
TΔS° [1]: 6.69 kcal/mol | ΔG° [1]: -11.5 kcal/mol | ΔH° [1]: -4.78 kcal/mol | ΔS° [1]: 95 J/(K*mol) | kon [2]: 2.49e+06 M⁻¹ s⁻¹ | kon [3]: 6740 M⁻¹ s⁻¹ | kon [4]: 4.24e+06 M⁻¹ s⁻¹ | koff [5]: 0.0103 s⁻¹ | Kd [6]: 1.4 nM | koff [7]: 0.0188 s⁻¹ | koff [8]: 0.0154 s⁻¹ | Kd [9]: 0.98 nM | kon [10]: 3.63e+08 M⁻¹ s⁻¹ | IC50 [11]: ~300 nM | koff [12]: 0.00605 s⁻¹ | Kd [13]: 1.22 nM | Kd [14]: 3.32 nM

B2: recombinant GPVI (platelet glycoprotein VI) (receptor)
chain: QSGPLPKPSLQALPSSLVPLEKPVTLRCQGPPGVDLYRLEKLSSSRYQDQAVLFIPAMKRSLAGRYRCSYQNGSLWSLPSDQLELVATGVFAKPSLSAQPGPAVSSGGDVTLQCQTRYGFDQFALYKEGDPAPYKNPERWYRASFPIITVTAAHSGTYRCYSFSSRDPYLWSAPSDPLELVVTGTSVTPSRLPTEPPSPVAEFSEATAELTVSFTNEVFTTETSRSITASPKESDSPAGPARQYYTK
binding result [15]: no binding (tested: 500 nM)

B3: Aegyptin C-terminus-2 (137 aa), truncated form without GEEDA repeats (other)
chain: GGDEGEDNAEDSKGSEKNDPADTYRQVVALLDKDTKVDHIQSEYLRSALNNDLQSEVRVPVVEAIGRIGDYSKIQGCFKSMGKDVKKVISEEEKKFKSCMSKKKSEYQCSEDSFAAAKSKLSPITSKIKSCVSSKGR
notes: also called C-terminal-2; C-terminus 2 domain
Kd [16]: ~60 nM
